Experimental data taken from publication PMC2956685, “The 14-3-3ζ Protein Binds to the Cell Adhesion Molecule L1, Promotes L1 Phosphorylation by CKII and Influences L1-Dependent Neurite Outgrowth” (PLoS ONE, 2010).

Target: His-L1ICD, non-phosphorylated (intracellular domain of L1) (mouse, UniProt P11627 1144-1260)
Assay: cell-based or functional assay

Chain of His-L1ICD, non-phosphorylated (intracellular domain of L1) (P11627 1144-1260): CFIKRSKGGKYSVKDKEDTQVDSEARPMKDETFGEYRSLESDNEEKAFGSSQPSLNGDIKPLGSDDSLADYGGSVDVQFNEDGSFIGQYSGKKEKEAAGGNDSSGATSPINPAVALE

phosphorylation of L1ICD by CKII in vitro (densitometry of the phospho-L1ICD band, 0 to 180 min) after preincubation with GST-14-3-3ζ against GST alone: ~3 fold
B1: GST-14-3-3ζ (natural protein, UniProt P63104 1-245, looked up)
chain: MDKNELVQKAKLAEQAERYDDMAACMKSVTEQGAELSNEERNLLSVAYKNVVGARRSSWRVVSSIEQKTEGAEKKQQMAREYREKIETELRDICNDVLSLLEKFLIPNASQAESKVFYLKMKGDYYRYLAEVAAGDDKKGIVDQSQQAYQEAFEISKKEMQPTHPIRLGLALNFSVFYYEILNSPEKACSLAKTAFDEAIAELDTLSEESYKDSTLIMQLLRDNLTLWTSDTQGDEAEAGEGGEN
